Measured values published in patent US20140370568A1, “Specialized (iso)eugenol-4-O-methyltransferases (s-IEMTs) and Methods of Making and Using the Same” (Brookhaven Science Associates, LLC, priority 2013, published 2014).
Residue numbers refer to the chain shown, from its start. Names may count otherwise.

Legend:
[1] = substrate: COc1cc(/C=C/CO)cc(OC)c1O; test: Enzyme kinetics of MOMT9-1 (4-O-methylation of phenolic substrates); assay type: biochemical, C. breweri; conditions: other: MOMT9-1
Source text: (§1) Further shaping of the substrate binding pocket targeting residues Thr-319, Ile-165, Leu-133 and Leu-143 by Iterative Saturation Mutagenesis using MOMT8-1 as the starting point lead to the generation of MOMT9-1 which carried all of the substitutions of MOMT8-1 and an additional substitution of Met for Thr at position 319. Thus MOMT9-1 is a specialized (iso)eugenol-4-O-methyltransferase (s-IEMT) having 6-fold higher specific activity with coniferyl alcohol as the substrate compared to its specific activity with sinapyl alcohol as substrate. The s-IEMT designated MOMT9-1 comprises a specialized (iso)eugenol-4-O-methyltransferase having the following substitutions: T133L/E165I/F175I/F166W/H169F/M26H/S30R/V33S/T319M where amine acid residue numbers correspond to those of SEQ ID NO. 1.
(§2) Each of the s-IEMTs was isolated following expression in bacterial cells of nucleic acid sequences encoding the enzymes. The isolated enzymes were analyzed for their substrate versatility, specificity and enzyme kinetics on various phenolic substrates.

[2] = substrate: COc1cc(/C=C/CO)ccc1O; test: as above; assay type: biochemical, C. breweri; conditions: other: MOMT9-1
Source text: as §1, §2

[3] = substrate: COc1cc(/C=C/CO)cc(OC)c1O; test: Enzyme kinetics of MOMT8-1 (4-O-methylation of phenolic substrates); assay type: biochemical, C. breweri; conditions: other: MOMT8-1
Source text: (§3) The first library examined amino acid substitutions at positions not previously explored, i.e., Met-26, Ser-30 and Val-33. The specialized (iso)eugenol-4-O-methyltransferase (s-IEMT) having all of the MOMT-5 substitutions and the additional substitution of His for Met at position 26, Arg for Ser at 30 and Ser for Val at 33 was designated MOMT8-1. The ratio of its activity for methylation of p-coniferyl alcohol versus methylation of p-sinapyl alcohol was 7.5:1 whereas the ratio of activity of MOMT-5 was about 4.2:1.
as §2

[4] = substrate: COc1cc(/C=C/CO)ccc1O; test: as above; assay type: biochemical, C. breweri; conditions: other: MOMT8-1
Source text: as §3, §2

[5] = substrate: COc1cc(/C=C/CO)cc(OC)c1O; test: Enzyme kinetics of MOMT8-2 (4-O-methylation of phenolic substrates); assay type: biochemical, C. breweri; conditions: other: MOMT8-2
Experimental: as §2
(§4) Iso-synapyl alcohol is thought to have the potential to be incorporated into lignin. These two additional specialized IEMT's having eight amino acid substitutions are designated as follows and have the indicated substitutions:
(§5) The specific activity of the various m-IEMT (MOMT-5) and s-IEMTs (MOMT8-2 and MOMT8-3) are shown in Table 4 and enzyme kinetic analysis is shown in Table 5.

[6] = substrate: COc1cc(/C=C/CO)ccc1O; test: as above; assay type: biochemical, C. breweri; conditions: other: MOMT8-2
Experimental: as §2, §4, §5

[7] = substrate: COc1cc(/C=C/CO)cc(O)c1O; test: as above; assay type: biochemical, C. breweri; conditions: other: MOMT8-2
Experimental: as §2, §4, §5

[8] = substrate: COc1cc(/C=C/CO)cc(OC)c1O; test: Enzyme kinetics of MOMT-5 (4-O-methylation of phenolic substrates); assay type: biochemical, C. breweri; conditions: other: MOMT-5
Source text: (§6) Starting with a modified (iso)eugenol-4-O-methyltransferase (m-IEMT) previously designated MOMT-5 having the five substitutions Leu for Thr at 133, Ile for Glu at 165, Ile for Phe at 175, Trp for Phe at 166 and Phe for His at 169 (T133L/E165I/F175I/F166W/H169F), where the amino acid residue numbers correspond to those for the C. breweri (iso)eugenol-4-O-methyltransferase protein (SEQ ID NO. 1), the synergistic effects of simultaneously modifying adjacent amino acids located in the substrate binding pocket have been explored. Specialized (iso)eugenol-4-O-methyltransferases (s-IEMTs) were generated that have relatively little activity on sinapyl alcohol compared to activity on p-coniferyl alcohol. Some species of s-IEMT have enhanced activity toward 4-O-methylation of ferulic acid. Additional species of s-IEMT have the capacity to generate iso-sinapyl alcohol. These s-IEMTs are useful for altering lignin precursors in plants, altering lignin composition in plants, and for producing potentially useful chemicals and chemical feedstock in plants as well as in different heterologous expression systems. […]
as §2, §5

[9] = substrate: COc1cc(/C=C/CO)ccc1O; test: as above; assay type: biochemical, C. breweri; conditions: other: MOMT-5
Source text: as §6, §2, §5

[10] = substrate: COc1cc(/C=C/CO)cc(O)c1O; test: as above; assay type: biochemical, C. breweri; conditions: other: MOMT-5
Source text: as §6, §2, §5

[11] = Specific activity with 5-hydroxyl coniferyl alcohol (formation of iso-sinapyl alcohol); assay type: biochemical; conditions: substrate 5-hydroxyl coniferyl alcohol; product iso-sinapyl alcohol
Experimental: as §2
Iso-synapyl alcohol is thought to have the potential to be incorporated into lignin. These two additional specialized IEMT's having eight amino acid substitutions are designated as follows and have the indicated substitutions: […]

[12] = Enzyme kinetics, coniferyl alcohol as substrate; assay type: biochemical; conditions: coniferyl alcohol versus sinapyl alcohol
Experimental: as §2

[13] = Specific activity with ferulic acid as the substrate; assay type: biochemical
Experimental: as §2

[14] = substrate: COc1cc(/C=C/CO)cc(OC)c1O; test: Enzyme kinetics of MOMT8-3 (4-O-methylation of phenolic substrates); assay type: biochemical, C. breweri; conditions: other: MOMT8-3
Experimental: as §2, §4, §5

[15] = substrate: COc1cc(/C=C/CO)ccc1O; test: as above; assay type: biochemical, C. breweri; conditions: other: MOMT8-3
Experimental: as §2, §4, §5

[16] = substrate: COc1cc(/C=C/CO)cc(O)c1O; test: as above; assay type: biochemical, C. breweri; conditions: other: MOMT8-3
Experimental: as §2, §4, §5

B1: C. breweri (iso)eugenol-4-O-methyltransferase (SEQ ID NO. 1) variant MOMT9-1, T133L/E165I/F175I/F166W/H169F/M26H/S30R/V33S/T319M (Clarkia breweri; … (protein)
chain: STGNAEIQIIPTHSSDEEANLFAHQLARAASLPMALKAAIELDVLEIMAKSVPPSGYISPAEIAAQLPTTNPEAPVMLDRVLRLLASYSVVTYTLRELPSGKVERLYGLAPVCKFLTKNEDGVSLAPFLLLATDKVLLEPWFYLKDAILEGGIPFNKAYGMNIWDYFGTDHRINKVFNKGMSSNSTITMKKILEMYNGFEGLTTIVDVGGGTGAVASMIVAKYPSINAINFDLPHVIQDAPAFSGVEHLGGDMFDGVPKGDAIFIKWICHDWSDEHCLKLLKNCYAALPDHGKVIVAEYILPPSPDPSIATKVVIHMDALMLAYNPGGKERTEKEFQALAMASGFRGFKVASCAFNTYVMEFLKTA
Km [1]: 109.5 ± 4.0 µM | Vmax [1]: 24.2 ± 0.3 nmol/mg/min | kcat [1]: 0.017 ± 0.0002 s⁻¹ | Km [2]: 16.1 ± 1.4 µM | Vmax [2]: 88.4 ± 1.7 nmol/mg/min | kcat [2]: 0.063 ± 0.001 s⁻¹

B2: C. breweri (iso)eugenol-4-O-methyltransferase (SEQ ID NO. 1) variant MOMT8-1, T133L/E165I/F175I/F166W/H169F/M26H/S30R/V33S (Clarkia breweri; … (protein)
chain: B1 chain with M317T
Km [3]: 26.3 ± 4.1 µM | Vmax [3]: 8.5 ± 0.3 nmol/mg/min | kcat [3]: 0.006 ± 0.000 s⁻¹ | Km [4]: 16.1 ± 1.3 µM | Vmax [4]: 68.1 ± 1.6 nmol/mg/min | kcat [4]: 0.049 ± 0.001 s⁻¹

B3: C. breweri (iso)eugenol-4-O-methyltransferase (SEQ ID NO. 1) variant MOMT8-2, T133L/E165I/F175I/F166W/H169F/M26S/S30F/V33Y (Clarkia breweri; … (protein)
chain: B1 chain with H24S, R28F, S31Y, M317T
Km [5]: 35.2 ± 9.8 µM | Vmax [5]: 0.0379 µmol/min/mg | kcat [5]: 0.027 ± 0.002 s⁻¹ | kcat/Km [5]: 767 M⁻¹ s⁻¹ | Km [6]: 15.9 ± 1.7 µM | Vmax [6]: 0.0322 µmol/min/mg | kcat [6]: 0.023 ± 0.001 s⁻¹ | kcat/Km [6]: 1450 M⁻¹ s⁻¹ | Km [7]: 57.9 ± 13.0 µM | Vmax [7]: 0.123 µmol/min/mg | kcat [7]: 0.088 ± 0.006 s⁻¹ | kcat/Km [7]: 1520 M⁻¹ s⁻¹

B4: C. breweri (iso)eugenol-4-O-methyltransferase (SEQ ID NO. 1) variant MOMT-5, T133L/E165I/F175I/F166W/H169F (Clarkia breweri; E165I/F166W/F175I/H169F/T133L) (protein)
chain: B1 chain with H24M, R28S, S31V, M317T
Km [8]: 14.7 ± 2.3 µM | Vmax [8]: 46.6 ± 1.5 nmol/mg/min | kcat [8]: 0.033 ± 0.001 s⁻¹ | Km [9]: 11.4 ± 1.6 µM | Vmax [9]: 96.1 ± 3.8 nmol/mg/min | kcat [9]: 0.069 ± 0.009 s⁻¹ | Km [10]: 105.0 ± 11.2 µM | Vmax [10]: 0.101 µmol/min/mg | kcat [10]: 0.072 ± 0.003 s⁻¹ | kcat/Km [10]: 686 M⁻¹ s⁻¹

B5: MOMT-5: previously generated modified C. breweri (iso)eugenol-4-O-methyltransferase (m-IEMT), substitutions T133L/E165I/F175I/F166W/H169F (protein, UniProt O04385 3-368, looked up, variant T133L E165I F175I F166W H169F)
(Iso)eugenol …: B1 chain with H24M, R28S, S31V, M317T
Specific activity with 5-hydroxyl coniferyl alcohol, iso-sinapyl alcohol [11]: 43.5 ± 4.0 nmol/mg/min | catalytic efficiency (kcat/Km) for coniferyl alcohol higher than for sinapyl alcohol [12]: less than 3 fold | Specific activity with ferulic acid as the substrate [13]: 7.84 nmol/min/mg

B6: C. breweri (iso)eugenol-4-O-methyltransferase (SEQ ID NO. 1) variant MOMT8-3, T133L/E165I/F175I/F166W/H169F/M26S/S30F/V33G (Clarkia breweri; … (protein)
chain: B1 chain with H24S, R28F, S31G, M317T
Km [14]: 35.9 ± 9.8 µM | Vmax [14]: 0.0515 µmol/min/mg | kcat [14]: 0.036 ± 0.003 s⁻¹ | kcat/Km [14]: 1000 M⁻¹ s⁻¹ | Km [15]: 23.3 ± 2.4 µM | Vmax [15]: 0.0735 µmol/min/mg | kcat [15]: 0.053 ± 0.001 s⁻¹ | kcat/Km [15]: 2270 M⁻¹ s⁻¹ | Km [16]: 65.4 ± 13.0 µM | Vmax [16]: 0.145 µmol/min/mg | kcat [16]: 0.104 ± 0.006 s⁻¹ | kcat/Km [16]: 1590 M⁻¹ s⁻¹
